*1 amine or outer side, *2 acyl side, *3 side chain or, on linkers, in order; H or OH if unused. Where no end group is shown, it is not given here. Side-chain parts run from the residue outwards. [ ]: non-standard residue; d: D form. The star is where a group is joined. γGlu = O=C(O)[C@H](CCC(=O)[*:2])N[*:1]; Stearoyl = CCCCCCCCCCCCCCCCCC(=O)*; Palmitoyl = CCCCCCCCCCCCCCCC(=O)*; Aib = CC(C)(N)C(=O)O
Experiments:
[1] = target: human GLP-1 receptor (human, UniProt P43220 24-463); test: cell-based or functional assay
[2] = target: human glucagon receptor (human, UniProt P47871 26-477); test: cell-based or functional assay
Sequence of human glucagon receptor (P47871 26-477): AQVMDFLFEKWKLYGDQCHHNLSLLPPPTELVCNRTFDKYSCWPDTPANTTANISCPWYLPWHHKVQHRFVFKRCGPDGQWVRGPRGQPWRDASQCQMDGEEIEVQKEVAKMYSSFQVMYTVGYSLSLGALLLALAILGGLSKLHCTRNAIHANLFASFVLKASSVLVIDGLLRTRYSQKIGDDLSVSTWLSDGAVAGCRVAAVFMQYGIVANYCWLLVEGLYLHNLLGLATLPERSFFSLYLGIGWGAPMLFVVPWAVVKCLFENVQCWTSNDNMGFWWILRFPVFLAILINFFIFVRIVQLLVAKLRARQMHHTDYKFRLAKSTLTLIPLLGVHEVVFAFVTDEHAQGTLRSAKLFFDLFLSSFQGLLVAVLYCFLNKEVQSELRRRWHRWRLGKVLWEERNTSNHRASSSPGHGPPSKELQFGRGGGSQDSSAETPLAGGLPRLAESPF

B1: SEQ ID NO: (76) (peptide)
peptide: H[dS]QGTFTSDLSKQMESRRAQDFIEWLKR[dA]GPSSGAPPPSK([γGlu-Palmitoyl])-NH2
modifications: N-terminus assumed
SMILES: CCCCCCCCCCCCCCCC(=O)N[C@@H](CCC(=O)NCCCC[C@H](NC(=O)[C@H](CO)NC(=O)[C@@H]1CCCN1C(=O)[C@@H]1CCCN1C(=O)[C@@H]1CCCN1C(=O)[C@H](C)NC(=O)CNC(=O)[C@H](CO)NC(=O)[C@H](CO)NC(=O)[C@@H]1CCCN1C(=O)CNC(=O)[C@@H](C)NC(=O)[C@H](CCCNC(=N)N)NC(=O)[C@H](CCCCN)NC(=O)[C@H](CC(C)C)NC(=O)[C@H](Cc1c[nH]c2ccccc12)NC(=O)[C@H](CCC(=O)O)NC(=O)[C@@H](NC(=O)[C@H](Cc1ccccc1)NC(=O)[C@H](CC(=O)O)NC(=O)[C@H](CCC(N)=O)NC(=O)[C@H](C)NC(=O)[C@H](CCCNC(=N)N)NC(=O)[C@H](CCCNC(=N)N)NC(=O)[C@H](CO)NC(=O)[C@H](CCC(=O)O)NC(=O)[C@H](CCSC)NC(=O)[C@H](CCC(N)=O)NC(=O)[C@H](CCCCN)NC(=O)[C@H](CO)NC(=O)[C@H](CC(C)C)NC(=O)[C@H](CC(=O)O)NC(=O)[C@H](CO)NC(=O)[C@@H](NC(=O)[C@H](Cc1ccccc1)NC(=O)[C@@H](NC(=O)CNC(=O)[C@H](CCC(N)=O)NC(=O)[C@@H](CO)NC(=O)[C@@H](N)Cc1c[nH]cn1)[C@@H](C)O)[C@@H](C)O)[C@@H](C)CC)C(N)=O)C(=O)O
EC50 hGLP-1R (cAMP formation) [1]: 4.8 pM | EC50 hGlucagonR (cAMP formation) [2]: 74.1 pM

B2: SEQ ID NO: (77) (peptide)
peptide: H[dS]QGTFTSDLSKQMESRRAQDFIEWLKKGGPSSGAPPPSK([γGlu-Palmitoyl])-NH2
modifications: N-terminus assumed
SMILES: CCCCCCCCCCCCCCCC(=O)N[C@@H](CCC(=O)NCCCC[C@H](NC(=O)[C@H](CO)NC(=O)[C@@H]1CCCN1C(=O)[C@@H]1CCCN1C(=O)[C@@H]1CCCN1C(=O)[C@H](C)NC(=O)CNC(=O)[C@H](CO)NC(=O)[C@H](CO)NC(=O)[C@@H]1CCCN1C(=O)CNC(=O)CNC(=O)[C@H](CCCCN)NC(=O)[C@H](CCCCN)NC(=O)[C@H](CC(C)C)NC(=O)[C@H](Cc1c[nH]c2ccccc12)NC(=O)[C@H](CCC(=O)O)NC(=O)[C@@H](NC(=O)[C@H](Cc1ccccc1)NC(=O)[C@H](CC(=O)O)NC(=O)[C@H](CCC(N)=O)NC(=O)[C@H](C)NC(=O)[C@H](CCCNC(=N)N)NC(=O)[C@H](CCCNC(=N)N)NC(=O)[C@H](CO)NC(=O)[C@H](CCC(=O)O)NC(=O)[C@H](CCSC)NC(=O)[C@H](CCC(N)=O)NC(=O)[C@H](CCCCN)NC(=O)[C@H](CO)NC(=O)[C@H](CC(C)C)NC(=O)[C@H](CC(=O)O)NC(=O)[C@H](CO)NC(=O)[C@@H](NC(=O)[C@H](Cc1ccccc1)NC(=O)[C@@H](NC(=O)CNC(=O)[C@H](CCC(N)=O)NC(=O)[C@@H](CO)NC(=O)[C@@H](N)Cc1c[nH]cn1)[C@@H](C)O)[C@@H](C)O)[C@@H](C)CC)C(N)=O)C(=O)O
EC50 hGLP-1R (cAMP formation) [1]: 3 pM | EC50 hGlucagonR (cAMP formation) [2]: 37.2 pM

B3: SEQ ID NO: (78) (peptide)
peptide: H[dS]QGTFTSDLSKQMESRRAQDFIEWLKSGGPSSGAPPPSK([γGlu-Palmitoyl])-NH2
modifications: N-terminus assumed
SMILES: CCCCCCCCCCCCCCCC(=O)N[C@@H](CCC(=O)NCCCC[C@H](NC(=O)[C@H](CO)NC(=O)[C@@H]1CCCN1C(=O)[C@@H]1CCCN1C(=O)[C@@H]1CCCN1C(=O)[C@H](C)NC(=O)CNC(=O)[C@H](CO)NC(=O)[C@H](CO)NC(=O)[C@@H]1CCCN1C(=O)CNC(=O)CNC(=O)[C@H](CO)NC(=O)[C@H](CCCCN)NC(=O)[C@H](CC(C)C)NC(=O)[C@H](Cc1c[nH]c2ccccc12)NC(=O)[C@H](CCC(=O)O)NC(=O)[C@@H](NC(=O)[C@H](Cc1ccccc1)NC(=O)[C@H](CC(=O)O)NC(=O)[C@H](CCC(N)=O)NC(=O)[C@H](C)NC(=O)[C@H](CCCNC(=N)N)NC(=O)[C@H](CCCNC(=N)N)NC(=O)[C@H](CO)NC(=O)[C@H](CCC(=O)O)NC(=O)[C@H](CCSC)NC(=O)[C@H](CCC(N)=O)NC(=O)[C@H](CCCCN)NC(=O)[C@H](CO)NC(=O)[C@H](CC(C)C)NC(=O)[C@H](CC(=O)O)NC(=O)[C@H](CO)NC(=O)[C@@H](NC(=O)[C@H](Cc1ccccc1)NC(=O)[C@@H](NC(=O)CNC(=O)[C@H](CCC(N)=O)NC(=O)[C@@H](CO)NC(=O)[C@@H](N)Cc1c[nH]cn1)[C@@H](C)O)[C@@H](C)O)[C@@H](C)CC)C(N)=O)C(=O)O
EC50 hGLP-1R (cAMP formation) [1]: 4.2 pM | EC50 hGlucagonR (cAMP formation) [2]: 18.1 pM

HSQGTFTSDLSKQMDERRAQDFIEWLKNGGPSSGAPPPS-NH2 [SEQ ID NO: (5)]
EC50 hGLP-1R (cAMP formation) [1]: 16.6 pM | EC50 hGlucagonR (cAMP formation) [2]: 67 pM

B4: SEQ ID NO: (79) (peptide)
peptide: H[dS]QGTFTSDLSKQMESRAAQLFIEWLKAGGPSSGAPPPSK([γGlu-Palmitoyl])-NH2
modifications: N-terminus assumed
SMILES: CCCCCCCCCCCCCCCC(=O)N[C@@H](CCC(=O)NCCCC[C@H](NC(=O)[C@H](CO)NC(=O)[C@@H]1CCCN1C(=O)[C@@H]1CCCN1C(=O)[C@@H]1CCCN1C(=O)[C@H](C)NC(=O)CNC(=O)[C@H](CO)NC(=O)[C@H](CO)NC(=O)[C@@H]1CCCN1C(=O)CNC(=O)CNC(=O)[C@H](C)NC(=O)[C@H](CCCCN)NC(=O)[C@H](CC(C)C)NC(=O)[C@H](Cc1c[nH]c2ccccc12)NC(=O)[C@H](CCC(=O)O)NC(=O)[C@@H](NC(=O)[C@H](Cc1ccccc1)NC(=O)[C@H](CC(C)C)NC(=O)[C@H](CCC(N)=O)NC(=O)[C@H](C)NC(=O)[C@H](C)NC(=O)[C@H](CCCNC(=N)N)NC(=O)[C@H](CO)NC(=O)[C@H](CCC(=O)O)NC(=O)[C@H](CCSC)NC(=O)[C@H](CCC(N)=O)NC(=O)[C@H](CCCCN)NC(=O)[C@H](CO)NC(=O)[C@H](CC(C)C)NC(=O)[C@H](CC(=O)O)NC(=O)[C@H](CO)NC(=O)[C@@H](NC(=O)[C@H](Cc1ccccc1)NC(=O)[C@@H](NC(=O)CNC(=O)[C@H](CCC(N)=O)NC(=O)[C@@H](CO)NC(=O)[C@@H](N)Cc1c[nH]cn1)[C@@H](C)O)[C@@H](C)O)[C@@H](C)CC)C(N)=O)C(=O)O
EC50 hGLP-1R (cAMP formation) [1]: 3.7 pM | EC50 hGlucagonR (cAMP formation) [2]: 195 pM

B5: SEQ ID NO: (80) (peptide)
peptide: H[dS]QGTFTSDLSKQMESRRAQDFIEWLK[Aib]GGPSSGAPPPK([γGlu-Palmitoyl])-NH2
modifications: N-terminus assumed
SMILES: CCCCCCCCCCCCCCCC(=O)N[C@@H](CCC(=O)NCCCC[C@H](NC(=O)[C@@H]1CCCN1C(=O)[C@@H]1CCCN1C(=O)[C@@H]1CCCN1C(=O)[C@H](C)NC(=O)CNC(=O)[C@H](CO)NC(=O)[C@H](CO)NC(=O)[C@@H]1CCCN1C(=O)CNC(=O)CNC(=O)C(C)(C)NC(=O)[C@H](CCCCN)NC(=O)[C@H](CC(C)C)NC(=O)[C@H](Cc1c[nH]c2ccccc12)NC(=O)[C@H](CCC(=O)O)NC(=O)[C@@H](NC(=O)[C@H](Cc1ccccc1)NC(=O)[C@H](CC(=O)O)NC(=O)[C@H](CCC(N)=O)NC(=O)[C@H](C)NC(=O)[C@H](CCCNC(=N)N)NC(=O)[C@H](CCCNC(=N)N)NC(=O)[C@H](CO)NC(=O)[C@H](CCC(=O)O)NC(=O)[C@H](CCSC)NC(=O)[C@H](CCC(N)=O)NC(=O)[C@H](CCCCN)NC(=O)[C@H](CO)NC(=O)[C@H](CC(C)C)NC(=O)[C@H](CC(=O)O)NC(=O)[C@H](CO)NC(=O)[C@@H](NC(=O)[C@H](Cc1ccccc1)NC(=O)[C@@H](NC(=O)CNC(=O)[C@H](CCC(N)=O)NC(=O)[C@@H](CO)NC(=O)[C@@H](N)Cc1c[nH]cn1)[C@@H](C)O)[C@@H](C)O)[C@@H](C)CC)C(N)=O)C(=O)O
EC50 hGLP-1R (cAMP formation) [1]: 10.8 pM | EC50 hGlucagonR (cAMP formation) [2]: 38.1 pM

H[dS]QGTFTSDLSKQMESRRAQDFIEWLK[Aib]GGPSSGAPPPK(Palmitoyl)-NH2 [SEQ ID NO: (81)]
EC50 hGLP-1R (cAMP formation) [1]: 19.7 pM | EC50 hGlucagonR (cAMP formation) [2]: 29.3 pM

GH[dS]QGTFTSDLSKQMESRRAQDFIEWLKSGGPSSGAPPPSK([γGlu-Palmitoyl])-NH2 [SEQ ID NO: (82)]
EC50 hGLP-1R (cAMP formation) [1]: 2590 pM | EC50 hGlucagonR (cAMP formation) [2]: 5520 pM

Ac-H[dS]QGTFTSDLSKQMESRRAQDFIEWLKSGGPSSGAPPPSK([γGlu-Palmitoyl])-NH2 [SEQ ID NO: (83)]
EC50 hGLP-1R (cAMP formation) [1]: 369 pM | EC50 hGlucagonR (cAMP formation) [2]: 375 pM

H[dS]QGTFTSDLSKQMESRRAQDFIEWLKSGGPSSGAPPPSK([γGlu-Stearoyl])-NH2 [SEQ ID NO: (84)]
EC50 hGLP-1R (cAMP formation) [1]: 3.9 pM | EC50 hGlucagonR (cAMP formation) [2]: 13.8 pM

H[dS]QGTFTSDLSKQMESRRAQDFIEWLKSGGPSSGAPPPSK(Stearoyl)-NH2 [SEQ ID NO: (85)]
EC50 hGLP-1R (cAMP formation) [1]: 6.4 pM | EC50 hGlucagonR (cAMP formation) [2]: 9 pM

H[dS]QGTFTSDLSKQMESRRAQDFIEWLKSGGPSSGAPPPSK([γGlu-tocopheryl‑succinyl])-NH2 [SEQ ID NO: (86)]
EC50 hGLP-1R (cAMP formation) [1]: 28.1 pM | EC50 hGlucagonR (cAMP formation) [2]: 21.8 pM

Reference: patent US20130336893A1 (Sanofi, published 2013)
